Experimental data published in US20210198377A1 (XDCEXPLORER SHANGHAI, published 2021).

Key:
[1] = target: T1, biotinylated recombinant TPBG protein (Homo sapiens (Human), UniProt Q13641 32-355, Biotinylated; the number and positions of the biotin labels are not stated and the letters do not carry them.); assay: competitive ELISA; row antibody 5 ug/mL; competitor: coated 37H9C5G2
T1 sequence: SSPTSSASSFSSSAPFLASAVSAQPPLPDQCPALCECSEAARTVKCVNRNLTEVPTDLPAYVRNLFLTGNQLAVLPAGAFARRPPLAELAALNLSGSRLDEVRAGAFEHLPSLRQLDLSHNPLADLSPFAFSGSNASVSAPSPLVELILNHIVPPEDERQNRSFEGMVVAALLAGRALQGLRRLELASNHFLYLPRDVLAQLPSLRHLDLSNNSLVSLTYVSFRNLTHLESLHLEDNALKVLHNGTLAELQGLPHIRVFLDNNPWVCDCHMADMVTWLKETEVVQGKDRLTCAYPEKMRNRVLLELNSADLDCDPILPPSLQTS
Method: (§1) The purified antibodies to be tested were diluted to 1 μg/mL using PBS, and coated with high-adsorption of 96-well microplates at […]. After overnight coating at 4[…], 250 μL of blocking buffer (PBS containing 0.01% (v/v) Tween20 and 1% (w/w) BSA) was added to block coating at room temperature for 1 h, and 0.05 μg/mL of biotinylated recombinant TPBG protein was added to each well. Meanwhile, 5 μg/mL final concentration of competitive antibodies, i.e. the purified antibodies obtained from Embodiment 2 with the clone number of 12B12C7C3, 5G4H10G5, 37H9C5G2, 39A11G5F2, 52C9E9F6, 28D4E6A9, 36A10D8B12, 99E12C7H1, 103E2E9C2 and 106D5G3D10 were added and incubated at 25-37° C. for 1-2 h. The plates were washed three times with plate-washing buffer (PBS containing 0.01% (v/v) Tween20) and HRP (horseradish peroxidase)-labeled streptavidin (purchased from Sigma) was added. After incubating at 37° C. for 0.5 h, the plates were washed three times with plate-washing buffer (PBS containing 0.01% (v/v) Tween20), and 100 μL of TMB substrate was added to each well and the plates were further incubated at room temperature for 30 min prior to adding 100 μL of stop buffer (1.0N HCl) to each well. A₄₅₀ₙₘ values were read using an ELISA microplate reader (SpectraMax 384plus purchased from Molecular Device) and results were shown in FIG. 6. The higher the values of the competition rate, the closer the antigen surface of the two antibodies are.

[2] = target: T1, biotinylated recombinant TPBG protein; assay: competitive ELISA; row antibody 5 ug/mL; competitor: coated 103E2E9C2
Method: as §1

[3] = target: T1, biotinylated recombinant TPBG protein; assay: competitive ELISA; row antibody 5 ug/mL; competitor: coated 12B12C7C3
Method: as §1

human TPBG-hFc [4] = target: T2, human TPBG-hFc (human, UniProt Q13641 32-355); assay: ELISA, coated human TPBG-hFc 1.0 ug/mL; antibody 0.0002 nM
T2 construct: also called immunogen A; hFc tagged TPBG protein; not shown: The human IgG Fc fragment of the pCpC vector (Invitrogen V044-50) and any linker to it
T2 sequence: T1 sequence
Method: (§2) The purified immunogen A (as for its method of preparation please refer to step 1 in Example 1) diluting with PBS to a final concentration of 1.0 μg/mL was aliquoted into a 96-well ELISA plate at 100 μL per well, and sealed with a parafilm and incubated at 4° C. overnight. The plate was washed twice with plate washing buffer (PBS containing 0.01% (v/v) Tween 20), and blocked with blocking buffer (PBS containing 0.01% (v/v) Tween 20 and 1% (w/w) BSA) at room temperature for 2 h. The blocking buffer was discarded, and 100 μL per well of the purified antibody obtained from Embodiment 2 was added. After incubating at 37° C. for 2 h, the plate was washed for three times with plate washing buffer (PBS containing 0.01% (v/v) Tween 20). HRP (horseradish peroxidase)-labeled secondary antibody (purchased from Sigma) was added and incubated at 37° C. for 2 h, and the plate was washed for three times using plate washing buffer (PBS containing 0.01% (v/v) Tween 20). 100 μL of TMB substrate was aliquoted into each well, incubated at room temperature for 30 min, and 100 μL of stop buffer (1.0N HCl) per well was subsequently added. A₄₅₀ₙₘ values were read using the ELISA plate reader (SpectraMax 384plus purchased from Molecular Device), and the results were shown in FIG. 6 and table 6. […] In Table 6 the IgG control herein is a mice IgG control, the data in the Table are OD₄₅₀ₘₙ values, and Blank means the OD₄₅₀ₘₙ value when there is only PBS buffer in the plate.

[5] = target: T1, biotinylated recombinant TPBG protein; assay: competitive ELISA; row antibody 5 ug/mL; competitor: coated 5G4H10G5
Method: as §1

human TPBG-hFc [6] = target: T2, human TPBG-hFc; assay: ELISA, coated human TPBG-hFc 1.0 ug/mL; antibody 0.02 nM
Method: as §2

[7] = target: T1, biotinylated recombinant TPBG protein; assay: competitive ELISA; row antibody 5 ug/mL; competitor: coated 39A11G5F2
Method: as §1

human TPBG-hFc [8] = target: T2, human TPBG-hFc; assay: ELISA, coated human TPBG-hFc 1.0 ug/mL; antibody 200 nM
Method: as §2

[9] = target: T1, biotinylated recombinant TPBG protein; assay: competitive ELISA; row antibody 5 ug/mL; competitor: coated 106D5G3D10
Method: as §1

B1: 12B12C7C3 (antibody, V domains shown)
VH: DVQLVESGGGLVQPGGSRKLSCAASGFTFSNFGMHWVRQAPEKGLEWVAYISSGSTSFYYADTVKGRFTISRDNPKNTLFLQMTSLRSEDTAMYYCSRTNSLLRGFFDAWGAGTTVTVSS
VL: DIVLTQSPASLAVSLGQRATISCRASQSVSSSSYTYLHWYQQKPGQPPKLLIKSASNLESGVPARFSGTGSGTDFTLNIHPVEEEDTATYYCQHSWEIPLTFGAGTKLELK
notes: Mouse hybridoma antibody purified from culture supernatant; also called TPBG antibody; lead antibody
- competition rate [1]: 1%
- competition rate [2]: 0%
- competition rate [3]: 97%
- OD450nm (human TPBG-hFc [4]): 0.1 OD450nm
- competition rate [5]: 47%
- OD450nm (human TPBG-hFc [6]): 0.29 OD450nm
- competition rate [7]: 0%
- OD450nm (human TPBG-hFc [8]): 2.82 OD450nm
- competition rate [9]: 96%
